From patent US20100092455A1 (PIERRE FABRE MEDICAMENT, published 2010)

Columns and labels:
[1] = target: T1, recombinant human JAM-C/Fc (R&D Systems ref. 1189-J3) (human, UniProt Q9BX67 32-241, limits assumed); assay: western blot, non-reducing, revealed with 6F4; 250, 25 and 10 ng deposited
T1 construct: Bought product; also called hJAM-C/Fc; human form of JAM-C; not shown: Fc part of the bought fusion protein
T1 sequence (looked up): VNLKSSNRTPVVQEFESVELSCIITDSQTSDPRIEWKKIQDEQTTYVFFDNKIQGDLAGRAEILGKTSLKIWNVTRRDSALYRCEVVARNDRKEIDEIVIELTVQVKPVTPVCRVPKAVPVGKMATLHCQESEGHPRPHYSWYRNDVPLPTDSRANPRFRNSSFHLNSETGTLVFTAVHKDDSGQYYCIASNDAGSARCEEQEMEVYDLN

[2] = target: T2, recombinant human JAM-B/Fc (R&D Systems ref. 1074-VJ) (human, UniProt P57087 29-236, limits assumed); assay: as above
T2 construct: Bought product; also called hJAM-B/Fc; human form of JAM-B; not shown: Fc part of the bought fusion protein
T2 sequence (looked up): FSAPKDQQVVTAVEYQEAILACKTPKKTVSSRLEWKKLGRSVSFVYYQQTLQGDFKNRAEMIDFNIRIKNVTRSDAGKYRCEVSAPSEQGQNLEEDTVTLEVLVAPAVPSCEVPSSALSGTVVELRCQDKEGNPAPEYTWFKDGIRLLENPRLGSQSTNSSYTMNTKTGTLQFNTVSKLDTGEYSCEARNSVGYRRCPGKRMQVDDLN

[3] = target: T3, recombinant murine JAM-A/Fc (R&D Systems ref. 1077-JM) (murine, UniProt O88792 27-238); assay: as above
T3 construct: extracellular domain; Bought product; also called mJAM-A/Fc; Mouse JAM-1-Fc; not shown: Fc part of the bought fusion protein
T3 sequence (looked up): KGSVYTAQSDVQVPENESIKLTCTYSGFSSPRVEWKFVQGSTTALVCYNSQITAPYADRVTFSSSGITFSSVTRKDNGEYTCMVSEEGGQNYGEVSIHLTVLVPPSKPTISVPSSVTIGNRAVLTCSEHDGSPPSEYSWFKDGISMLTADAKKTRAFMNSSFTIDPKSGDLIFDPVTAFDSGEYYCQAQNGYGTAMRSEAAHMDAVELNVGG

[4] = target: T4, natural human JAM-A protein (F11R / junctional adhesion molecule A), isoform a (human, UniProt Q9Y624 28-299); assay: flow cytometry, labeling of MCF-7 cells with 6F4
T4 construct: Natural protein; Mass spectrometry matched it to JAM-A isoform a; also called F11 receptor; JAM-1
T4 sequence: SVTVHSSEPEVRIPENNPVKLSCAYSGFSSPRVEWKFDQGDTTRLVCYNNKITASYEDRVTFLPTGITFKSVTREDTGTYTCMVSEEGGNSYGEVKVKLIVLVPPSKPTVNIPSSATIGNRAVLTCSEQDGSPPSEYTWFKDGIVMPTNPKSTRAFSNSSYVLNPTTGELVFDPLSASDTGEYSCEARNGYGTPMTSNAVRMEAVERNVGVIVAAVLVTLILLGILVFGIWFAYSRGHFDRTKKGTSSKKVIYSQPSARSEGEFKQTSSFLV

[5] = target: T5, recombinant human JAM-A/Fc (R&D Systems ref. 1103-JM) (human, UniProt Q9Y624 28-238); assay: SPR (BIAcore X), double reference, Langmuir A+B binding model, 25° C.
T5 construct: also called hJAM-A/Fc; Human JAM-1-Fc
T5 sequence: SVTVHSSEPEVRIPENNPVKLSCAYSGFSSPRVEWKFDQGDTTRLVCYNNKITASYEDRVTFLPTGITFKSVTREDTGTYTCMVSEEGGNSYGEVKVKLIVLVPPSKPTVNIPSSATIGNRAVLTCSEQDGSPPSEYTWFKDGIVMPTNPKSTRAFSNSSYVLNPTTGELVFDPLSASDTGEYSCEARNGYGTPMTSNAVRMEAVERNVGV
Method: (§1) FIG. 14 is sensorgrams obtained with a double reference, (Fc2-Fc1)6F4(Fc2-Fc1)HBS-EP. The curve is fitted using a Langmuir A+B binding model.
(§2) Murine monoclonal 6F4 antibody: 1.3 mg/ml [0351] […] Running buffer: HBS-EP (BIAcore) [0354] Binding kit: “Amine” (BIAcore) [0355] Binding buffer: Acetate pH 5.0 (BIAcore) [0356] Capturing antibody: goat IgG Fc anti-human (=GAH, goat anti-human) (Bioscience) [0357] Regeneration buffer: Glycine, HCl pH 1.5 for 30 seconds (BIAcore).

[6] = target: T5, recombinant human JAM-A/Fc (R&D Systems …); assay: SPR (BIAcore X), KD=kd/ka
Method: as §1, §2

binding result [1]: no binding (tested: 250 ng)
binding result [2]: no binding (tested: 250 ng)
binding result [3]: no binding (tested: 250 ng)
EC50 (read off the curve) [4]: ~0.3 µg/mL
koff [5]: 2.5e-07 s⁻¹
kon [5]: 138000 M⁻¹ s⁻¹
Kd [6]: 0.022 nM
B1: murine monoclonal 6F4 antibody (antibody, V domains shown)
VH: EIQLQQSGPELVKPGASVKVSCKASGYSFTDYSMYWVKQSHGKSLEWIGYIDPYNGGTRYNQKFKGKATLTVDKSSSTAFMHLNSLTSEDSAVYYCARQTDYFDYWGQGTTLTVSS
VL: DIQMTQSPSSLSASLGGKVTITCKASQDINNYIAWYQHKPGKGPRLLIHYTSTLQAGIPSRFSGSGSGRDYSFSISNLEPEDIGTYYCLQYDNLWTFGGGTKLEIKR
notes: also called 6F4 MAb; Mab 6F4; copies: 2 + 2
